Read-outs that look alike come from different tables or passages of the source.
Assays:
[1] = system: bFGF-induced vessels in subcutaneously implanted polyether sponges; assay: mouse sponge assay of angiogenesis in vivo; parameters: species or system C57 black mice; conditions: for reduction in vessel number versus bFGF alone: day 21
Experimental: In these experiments, polyether sponges were subcutaneously implanted in C57 black mice and injected on alternate days with 10 ng bovine fibroblast growth factor (bFGF) or 10 ng bFGF+5 μg full length His-tagged recombinant FKBP-L polypeptide (SEQ ID NO: 1). After 14 days of treatment, sponges were harvested, sectioned and stained with heamatoxylin and eosin.
This experiment evalulated the ability of the FKBP-L 24mer to inhibit angiogenesis using the mouse sponge assay. Polyether sponges were subcutaneously implanted in C57 black mice on day 0 and injected on alternate days with (a) 10 ng bFGF control (3 mice) (b) 10 ng bovine fibroblast growth factor (bFGF)+5 μg full-length his-tagged recombinant FKBPL (equivalent to 3.2×10^−6 M in vitro) (3 mice) (c) 10 ng bFGF+0.35 μg FKBPL 24mer (molar equivalent of 5 μg full-length recombinant FKBPL) (3 mice) or (d) 0.11 ng FKBPL 24mer (equivalent to 10^−9 M in vitro) (3 mice).
All mice were sacrificed on day 21. Sponges were removed, fixed and paraffin embedded. Five micron sections were stained with haematoxylin and eosin. Vessels were blindly counted by 3 independent assessors using ×40 magnification in 10 fields per section. The average count per sponge/mouse was then plotted for each assessor.

HMEC-1 = assay type: cell-based, Human
Experimental: (§1) The in vitro tubule formation assay used in these studies is a modified version of the method described by Ashton et al (1999). In brief, assays were conducted using BD BioCoat™ Matrigel™ Matrix Thin Layer 24-well Multiwell Plates (BD Discovery Labware, Oxford, UK). The Matrigel™ was rehydrated with 500 μl MCDB-131 serum free medium and incubated at 37° C. for 30 minutes. Excess medium was removed and HMEC-1 were seeded at a density of 1×10^5 and the plates incubated at 37° C. under 5% CO2/95% air for 1 hour.
Increasing concentrations of the recombinant FKBP-L protein (SEQ ID NO: 1) were added to each individual well in triplicate (250-1000 ngml^−1) and the plate was incubated for a further 18 hours. The degree of tubule formation between adjacent HMEC-1 cells was assessed in each well in five fields of view, by counting the number of cell to cell contacts between different HMEC-1 cells in the designated area. An independent investigator assessed each well and the FKBP-L treated wells were compared to sham treated controls.
as §1, with “al.” for “al”, “min.” for “minutes.”, “h. Increasing concentrations of FKBP-L 24mer (SEQ ID NO: 10) and 1-57mer (SEQ ID NO: 6) from 10^−14-10^−6 M were used.” for “hour.”
The plate was incubated for a further 18 h. The degree of tubule formation between adjacent HMEC-1 cells was assessed in each well in five fields of view, by counting the number of cell to cell contacts between different HMEC-1 cells in the designated area. An independent investigator assessed each well and the FKBP-L treated wells were compared to sham treated controls.

rat aortic ring = assay type: cell-based, Male Wistar rats
Experimental: Male Wistar rats were euthanised and the thoracic aorta was aseptically removed and sectioned into 1 cm thick rings. The rings were washed ten times in sterile medium to remove any bacteria and embedded into Matrigel on 24 well plates. The wells were supplemented with 2 ml of medium and increasing concentrations of full-length His-tagged recombinant FKBP-L protein (SEQ ID 1). The plate was incubated for 8 days and post incubation the Matrigel and rings were fixed in 4% PBS buffered paraformaldehyde and stored in PBS. The extent of vessel development was blindly assessed microscopically by an independent investigator and quantified using a calibrated eyepiece graticule (1 mm/100 μm graduation) at 20× magnification (Olympus BX 50). The extent of vessel length, maximum vessel length and number of vessels in each field of view was measured and compared to time matched sham controls and the percent (%) inhibition calculated. Male Wistar rats were euthanised and the thoracic aorta was aseptically removed and sectioned into 1 cm thick rings. The rings were washed ten times in sterile medium to remove any bacteria and embedded into Matrigel on 24 well plates. The wells were supplemented with 2 ml of medium and increasing concentrations of FKBP-L 24mer (SEQ ID NO: 10) and FKBP-L 1-57mer (SEQ ID NO: 6) and recombinant FKBP-L (SEQ ID NO:1). The plate was blindly assessed by an independent investigator and quantified using a calibrated eyepiece graticule (1 mm/100 μm graduation) at 20× magnification (Olympus BX 50). The extent of vessel length, maximum vessel length and number of vessels in each field of view was measured and compared to time matched sham controls and the % inhibition calculated. In order to determine whether the FKBP-L 24mer exerted a permanent or static effect on endothelial cell sprouting the rat aortic ring assay was used. Male Wistar rats were euthanised and the thoracic aorta was aseptically removed and sectioned into 1 cm thick rings. The rings were washed ten times in sterile medium to remove any bacteria and embedded into Matrigel on 24 well plates. The wells were supplemented with 2 ml of medium. The plates were incubated for up to 15 days. Each day the Matrigel rings were photographed and returned to their incubator. Two further experiments were carried out: (A) addition of FKBP-L 24mer to the medium after the vessels had grown for seven days; and (B) addition of FKBP-L 24mer to the medium at the initial embedding stage, with subsequent removal after seven days and replacement with fresh medium for a further seven days. The extent of vessel development was quantified using a calibrated eyepiece graticule (1 mm/100 μm graduation) at 20× magnification (Olympus BX 50), and measured electronically using Lucia imaging software. Vessel length was measured and compared to time matched sham controls and the percent (%) inhibition calculated.

Molecule: H-QIRQQPRDPPTETLELEVSPDPAS-OH [FKBP-L 24mer]
- reduction in vessel number versus bFGF alone ([1]; 10 ng bFGF + 0.35 μg on alternate days): 80%
- reduction in vessel number versus bFGF alone ([1]; lowest dose (0.11 ng, equivalent to 10^−9 M in vitro) on alternate days): 70%
- EC50 (HMEC-1; 18 h): 30 pM
- IC50 (rat aortic ring): 0.2 pM
- vessel development after addition at day seven (rat aortic ring; 10^−9 M added after vessels had developed for seven days, vs time matched controls): complete inhibition of vessel development
- vessel development, exposure from initial embedding (rat aortic ring; medium supplemented from embedding, seven days): almost completely inhibited vessel development
- vessel development after removal of the peptide (rat aortic ring; supplemented medium removed after seven days, fresh medium added): continued growth of vessels

B1: full length recombinant FKBP-L: recombinant full length his-tagged FKBP-L protein (SEQ ID NO: 1) expressed in BL21 (DE3) (protein, listed as Homo sapiens)
chain: MRGSHHHHHHGMASMTGGQQMGRDLYDDDDKDRWGSMETPPVNTIGEKDTSQPQQEWEKNLRENLDSVIQIRQQPRDPPTETLELEVSPDPASQILEHTQGAEKLVAELEGDSHKSHGSTSQMPEALQASDLWYCPDGSFVKKIVIRGHGLDKPKLGSCCRVLALGFPFGSGPPEGWTELTMGVGPWREETWGELIEKCLESMCQGEEAELQLPGHTGPPVGLTLASFTQGRDSWELETSEKEALAREERARGTELFRAGNPEGAARCYGRALRLLLTLPPPGPPERTVLHANLAACQLLLGQPQLAAQSCDRVLEREPGHLKALYRRGVAQAALGNLEKATADLKKVLAIDPKNRAAQEELGKVVIQGKNQDAGLAQGLRKMFG
modifications: His tag
- reduction in vessel number versus bFGF alone ([1]; 10 ng bFGF + 5 μg on alternate days): 50%
- vessel counts versus bFGF alone ([1]; 10 ng bFGF+5 μg on alternate days, 14 days, p=0.0008): significantly fewer vessels
- optimum concentration for inhibition of cell to cell contacts or tubules (HMEC-1; 250-1000 ngml^−1, 18 hours): 750 ngml^−1
- efficacy (inhibition of cell to cell contacts) at optimum concentration (HMEC-1; 750 ngml^−1, 18 hours): 80%
- EC50 potency, tube formation (HMEC-1; 18 hours): 314 ngml^−1
- inhibition of number of vessels formed (rat aortic ring; 500 ngml^−1 (optimal), 8 days): 65%
- inhibition of maximum vessel length compared to time matched controls (rat aortic ring; 1000 ngml^−1, 8 days): 70%
- inhibition of mean vessel length compared to time matched controls (rat aortic ring; 1000 ngml^−1, 8 days): 63%
- IC50 (rat aortic ring; read-out: IC50, number of vessels): 1560 pM

Source: patent US10577406B2, “FKBP-L polypeptides and uses in angiogenesis-mediated disorders” (ALMAC DISCOVERY LIMITED, priority 2006, dated 2020)
